Patent US20220098303A1 (GlaxoSmithKline, published 2022)

Molecular target: cynomolgus PD-1 (cynomolgus)
Experiment: kinetic analysis (bio-light interferometry)

Kd: 0.118 nM
B1: Pembrolizumab (antibody, V domains shown)
VH: QVQLVQSGVEVKKPGASVKVSCKASGYTFTNYYMYWVRQAPGQGLEWMGGINPSNGGTNFNEKFKNRVTLTTDSSTTTAYMELKSLQFDDTAVYYCARRDYRFDMGFDYWGQGTTVTVSS
VL: EIVLTQSPATLSLSPGERATLSCRASKGVSTSGYSYLHWYQQKPGQAPRLLIYLASYLESGVPARFSGSGSGTDFTLTISSLEPEDFAVYYCQHSRDLPLTFGGGTKVEIKR
notes: also called MK3475
